This assay addresses T1, GST-ZPSG-1 (UniProt Q07157 417-806).
T1 sequence: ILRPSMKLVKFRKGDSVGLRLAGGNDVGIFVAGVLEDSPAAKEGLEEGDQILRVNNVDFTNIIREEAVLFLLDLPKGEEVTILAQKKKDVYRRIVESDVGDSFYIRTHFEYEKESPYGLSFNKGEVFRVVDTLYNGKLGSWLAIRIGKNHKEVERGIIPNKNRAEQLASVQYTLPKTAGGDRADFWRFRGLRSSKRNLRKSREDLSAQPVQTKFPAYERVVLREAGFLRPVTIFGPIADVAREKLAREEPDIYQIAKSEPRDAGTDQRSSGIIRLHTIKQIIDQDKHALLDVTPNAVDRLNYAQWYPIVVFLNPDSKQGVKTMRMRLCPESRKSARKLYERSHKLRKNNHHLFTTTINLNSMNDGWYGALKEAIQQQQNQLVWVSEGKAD
Briefly: supernatant depletion assay.

Results on two molecules are retold here after paper doi:10.1101/156513 (bioRxiv, 2017).

B1: HA-DbpA (natural protein)
chain: not shown
Molecule B1 registered a Kd of 100 nM.

B2: GFP-tagged C-terminal ZO-1 fragment (GFP-ZO-1-1619-1748) (domain or fragment)
chain: SAVEEDEDEDGHTVVATARGIFNSNGGVLSSIETGVSIIIPQGAIPEGVEQEIYFKVCRDNSILPPLDKEKGETLLSPLVMCGPHGLKFLKPVELRLPHCDPKTWQNKCLPGDPNYLVGANCVSVLIDHF
B2 yielded a Kd of 66 nM.

For orientation: Kd means the equilibrium constant for the complex coming apart. Lower therefore signals tighter binding.
